The values below come from patent US20140275490A1 (Astellas, published 2014).

First the molecules themselves.
T1: human IL-23R (human, UniProt Q5VWK5 24-629)
T1 sequence: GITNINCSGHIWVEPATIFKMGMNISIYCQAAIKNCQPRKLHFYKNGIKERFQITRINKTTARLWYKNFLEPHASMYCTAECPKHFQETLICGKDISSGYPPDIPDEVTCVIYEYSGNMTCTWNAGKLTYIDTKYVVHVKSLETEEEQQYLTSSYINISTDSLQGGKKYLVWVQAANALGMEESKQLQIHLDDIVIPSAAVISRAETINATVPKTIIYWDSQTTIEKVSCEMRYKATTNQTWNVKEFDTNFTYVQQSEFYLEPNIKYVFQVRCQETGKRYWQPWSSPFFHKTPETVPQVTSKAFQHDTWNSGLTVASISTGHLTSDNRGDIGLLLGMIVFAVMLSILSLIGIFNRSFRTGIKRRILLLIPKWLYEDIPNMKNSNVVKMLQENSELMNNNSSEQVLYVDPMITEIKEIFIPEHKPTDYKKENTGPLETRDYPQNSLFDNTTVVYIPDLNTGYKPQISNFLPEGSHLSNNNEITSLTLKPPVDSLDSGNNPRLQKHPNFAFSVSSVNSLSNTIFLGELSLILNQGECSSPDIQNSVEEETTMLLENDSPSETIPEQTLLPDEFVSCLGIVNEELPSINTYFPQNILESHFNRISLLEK

T2: human IL-23R-mouse Fc fusion protein (human; mouse, UniProt Q5VWK5 24-353)
T2 construct: Expressed in FreeStyle 293 cells, purified; immobilized on the ELISA plate at 500 ng/mL; also called human IL-23R-Fc fusion protein; not shown: Fc region of mouse immunoglobulin (IgG2a) as encoded by the vector pFUSE-mIgG2A-Fc2 (InvivoGen); limits and any linker r
T2 sequence: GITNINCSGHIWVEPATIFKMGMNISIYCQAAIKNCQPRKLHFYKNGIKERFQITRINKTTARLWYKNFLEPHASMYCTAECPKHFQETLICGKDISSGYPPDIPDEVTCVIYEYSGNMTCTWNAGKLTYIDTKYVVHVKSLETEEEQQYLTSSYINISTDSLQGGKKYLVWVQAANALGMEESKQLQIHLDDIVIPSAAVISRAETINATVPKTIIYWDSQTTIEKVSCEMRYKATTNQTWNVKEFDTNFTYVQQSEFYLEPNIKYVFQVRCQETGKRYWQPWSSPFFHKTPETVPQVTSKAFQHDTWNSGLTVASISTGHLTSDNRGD

B1: fully human antibody 30-15 (antibody, human IgG1, kappa, V domains shown)
VH: QVQLVQSGAEVKKPGASMKVSCKVSGYTLNELSIHWVRQAPGKGLEWMGGFDPEHGETVYAQNFQDRVTLTEDTSTDTSYMGLNNLRSDDTAVYYCAAESYGDYEFWGQGTLVTVSS
VL: DIQMTQSPSSVSASVGDRVTITCRASQGINNWLAWYQQKPGKAPKVLIYTASSLQSGVPSRFSGSGSGTDFTLTISSLQPEDFATYYCQQANSHPWTFGQGTKVEIKR
notes: Human Ig gamma1 / human kappa constant regions; also called 30-15 (fully human); fully human 30-15 antibody
B2: fully human antibody 30-16 (antibody, human IgG1, kappa, V domains shown)
VH: QVQVVQSGAEVKKPGASVKVSCKVSGYTLIELAIHWVRQVPGKGLEWMGGFDPEHGETIYAQKFQGRVTMTEDTSTDTAYMELNNLRSEDTAVYYCAILEAGDLDCWGQGTLVTVSS
VL: B1 VL with N30S, I75V, S77G, A84G, H94F, W96F, Q100P, E105D
notes: Human Ig gamma1 / human kappa constant regions; also called 30-16 (fully human); fully human 30-16 antibody
B3: fully human antibody 30-18 (antibody, human IgG1, kappa, V domains shown)
VH: B1 VH with M18V, G56S, V59L, V68L, D77E, S79A, Y80C, G82E, N85S
VL: B1 VL with G28D, N30S, N31S
notes: Human Ig gamma1 / human kappa constant regions; also called 30-18 (fully human); fully human 30-18 antibody
B4: fully human antibody 32-36 (antibody, human IgG1, kappa, V domains shown)
VH: QVQMVQSGAEVKRPGASVKVSCKVSGYTLNELGIHWVRQAPGKGLEWMGGFDPEHGKIIYAQRFQGRLTMPEDTSTDTAYMELSSLTSEDTAVYYCATVAAPLDYWGQGTLVTVSS
VL: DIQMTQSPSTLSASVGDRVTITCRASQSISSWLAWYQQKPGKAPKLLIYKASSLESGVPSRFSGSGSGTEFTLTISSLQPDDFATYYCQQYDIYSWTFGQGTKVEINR
notes: Human Ig gamma1 / human kappa constant regions; also called 32-36 (fully human); fully human 32-36 antibody
B5: fully human antibody 25-3 (antibody, human IgG1, kappa, V domains shown)
VH: QVQLQESGPGQVKPSQTLSLTCSVSGGSIDSGDHYWTWIRQHPGEVLEWIGYIYSSGHTYYSPSLKSRLTMSLDTSKNQFSLRLSSVTAADTAVYYCARVGDYEWFDTWGQGTLVTVSS
VL: DIVMTQSPDSLAVSLGERATINCKSSQTILYPSNNMNYLGWYQQRAGQSPRLLIYWASTRESGVPDRFSGSGSGTDFTLTISSLQAEDVAVYYCQQYYSSLPTFGQGTKVEIKR
notes: Human Ig gamma1 / human kappa constant regions; also called 25-3 (fully human); fully human 25-3 antibody
B6: fully human antibody 32-28 (antibody, human IgG1, kappa, V domains shown)
VH: QVHLVQSGTEVRKPGASVKVSCKVSGYTLNELAIHWVRQAPGKGLEWMGGFDPEHGEIIYAQRFQGRVTLPEDTSTDTAYLDLFNLRSEDTAVYFCATEAAPFDYWGQGTLVIVSS
VL: DIQMTQSPSTLSASVGDRVTITCRASQSLSSWLAWYQQKPGKAPKLLIYKASSLESGVPSRFSGSGSGTDFTLTISSLQPDDFATYYCQQYDIYPRTFGQGTKVEIKR
notes: Human Ig gamma1 / human kappa constant regions; also called 32-28 (fully human); fully human 32-28 antibody
B7: fully human antibody 34-58 (antibody, human IgG1, kappa, V domains shown)
VH: B6 VH with V68I, L81M, F84V, A97T, T110S
VL: B6 VL with S31N, S77G
notes: Human Ig gamma1 / human kappa constant regions; also called 34-58 (fully human); fully human 34-58 antibody
B8: 30-15 (chimeric) (antibody, V domains shown)
VH: B1 VH
VL: B1 VL
B9: 30-16 (chimeric) (antibody, V domains shown)
VH: B2 VH
VL: B1 VL with N30S, I75V, S77G, A84G, H94F, W96F, Q100P, E105D
B10: 25-3 (chimeric) (antibody, V domains shown)
VH: B5 VH
VL: B5 VL
B11: 32-28 (chimeric) (antibody, V domains shown)
VH: B6 VH
VL: B6 VL
B12: 34-58 (chimeric) (antibody, V domains shown)
VH: B6 VH with V68I, L81M, F84V, A97T, T110S
VL: B6 VL with S31N, S77G

Residue numbers refer to the chain shown, from its start.

The first test addresses T3, monkey IL-23R-mouse Fc fusion protein (monkey; mouse).
T3 construct: extracellular domain; also called monkey IL-23R-Fc fusion protein
As to the kind of experiment: antigen ELISA, monkey IL-23R-Fc immobilized, HRP anti-human IgG, chemiluminescence. The protocol: (§1) The present inventors used an antigen ELISA to measure the antigen-specific binding activities of the fully human antibodies constructed in Example 6. A human or monkey IL-23R-Fc fusion protein was immobilized onto a Maxisorp 384-well plate (Nunc, Inc.) at a concentration of 500 ng/mL. A blocking agent (Blocking One; Nacalai Tesque, Inc.) was added thereto and allowed to stand at room temperature for 1 hour, followed by washing twice with a wash buffer [TPBS: 0.05% Tween-20-containing phosphate buffered saline (PBS)], and each of the purified antibody samples was suitably serially diluted and added thereto. Incubation was performed at room temperature for 1 hour, followed by washing four times with TPBS, and HRP-labeled anti-human IgG antibody (DAKO) which was 2000-fold diluted with dilution buffer was added as secondary antibody. Incubation was performed at room temperature for 1 hour, followed by washing four times with a washing buffer. A BM-chemiluminescence ELISA substrate (POD) (Roche Diagnostics) that is a reagent for detecting chemiluminescence was added thereto and the amount of chemiluminescence was measured with an EnVision counter (Perkin Elmer). Each of the antibodies was tested in duplicate, and the EC 50 was analyzed by curve fitting.
In general terms: In an ELISA, binding on a coated surface is turned into a signal by an enzyme label.
In general, EC50 refers to the concentration that produces a half-maximal response. B1 displayed an EC50 of 0.0076 µg/mL.
Molecule B2 returned an EC50 of 0.0108 µg/mL.
Take B3: the EC50 was 0.0084 µg/mL.
With B4, the EC50 is 0.0331 µg/mL.
As to B5, the midpoint of the response, the EC50, lay at 0.0112 µg/mL.
As for B6, the EC50 worked out at 0.0171 µg/mL.
On to B7, for which it took 0.0148 µg/mL to reach a half-maximal effect (EC50).

A further test has as its target T1, human IL-23R. As to the kind of experiment: cell-based or functional assay.
On to B1, for which the “IC50, inhibition of human IL-23-inducible Kit-225 cell proliferation” value (shortened to “IC50, inhibition”) came to 0.0014 µg/mL.
For B2, the “IC50, inhibition” value stood at 0.0023 µg/mL.
In the case of B3, the “IC50, inhibition” value came out at 0.0033 µg/mL.
B4: the “IC50, inhibition” value is 0.0067 µg/mL.
Consider B5, for which the “IC50, inhibition” value was determined as 0.0035 µg/mL.
Same read-out and setting: with B6 the figure was 0.0014 µg/mL.
Turning to B7, the “IC50, inhibition” value was 0.0037 µg/mL.

In another test the target is T2, human IL-23R-mouse Fc fusion protein. As to the kind of experiment: antigen ELISA, human IL-23R-Fc immobilized, HRP anti-mouse Ig, chemiluminescence. The protocol:
(§2) The present inventors used an antigen ELISA to measure the antigen-specific binding activity of the antibody. The human or monkey IL-23R-Fc fusion protein was immobilized onto a Maxisorp 384-well plate (Nunc, Inc.) at a concentration of 500 ng/mL. A blocking agent (Blocking One; Nacalai Tesque, Inc.) was added thereto and allowed to stand at room temperature for 1 hour, followed by washing twice with a wash buffer [TPBS: a phosphate buffered saline (PBS) containing 0.05% Tween-20], and the purified antibody samples were suitably serially diluted and added thereto. Incubation was performed at room temperature for 1 hour, followed by washing four times with TPBS, and HRP-rabbit anti-mouse Ig antibody (DAKO) which was 2000-fold diluted with a dilution buffer was added. Incubation was performed at room temperature for 1 hour, followed by washing four times with a wash buffer. A BM-chemiluminescence ELISA substrate (POD) (Roche Diagnostics), which is a reagent for detecting chemical luminescence, was added, and the amount of chemiluminescence was measured with an EnVision counter (Perkin Elmer). Each antibody was tested in duplicate and the EC50 was analyzed by curve fitting. In this test, a fusion antibody obtained by replacing the Fc region of the known humanized anti-human IL-23R antibody hum20D7 (patent document 1) with the mouse Fc region (hereinafter referred to as hum20D7-mFc) was used as a comparative antibody. Also, the reason why the hum20D7 was fused with the mouse Fc region to prepare a fusion protein was to use anti-mouse Ig antibody as secondary antibody, and the mouse Fc region could be recognized by the anti-mouse Ig antibody, thereby rendering it possible to measure activity.
In the case of B8, the EC50 came to 0.017 µg/mL.
Molecule B9 had an EC50 of 0.019 µg/mL.
For B10, the EC50 stood at 0.021 µg/mL.
With B11, a half-maximal effect (EC50) was put at 0.018 µg/mL.
Still for that read-out and setting: with B12 the figure was 0.017 µg/mL.

The next test has as its target T3, monkey IL-23R-mouse Fc fusion protein. The test can be described thus: antigen ELISA, monkey IL-23R-Fc immobilized, HRP anti-mouse Ig, chemiluminescence. The procedure:
as §2
Take B8: a half-maximal response (EC50) required 0.016 µg/mL.
Regarding B9, the EC50 turned out to be 0.069 µg/mL.
B10 yielded an EC50 of 0.028 µg/mL.
The same measure, in the same setting: then B11, with 0.024 µg/mL; and B12, with 0.013 µg/mL.

A further test has as its target T1, human IL-23R. As to the kind of experiment: cell-based or functional assay. The source holds these as a separate data set.
As to B1, the “IC50, IL-23-stimulated STAT3 phosphorylation in CD4 lymphocytes of human whole blood” value (shortened to “IC50 … of human whole blood”) turned out to be 0.013 µg/mL.
Regarding B2, the “IC50 … of human whole blood” value turned out to be 0.0045 µg/mL.
Regarding B4, the “IC50 … of human whole blood” value is 0.0082 µg/mL.
On the same count and under the same terms, then B5, with 0.0007 µg/mL.
On to B6, for which the “IC50 … of human whole blood” value came to 0.00016 µg/mL.
Still for that read-out and setting: with B7 the figure was 0.00051 µg/mL.

A further test addresses T2, human IL-23R-mouse Fc fusion protein. The test can be described thus: antigen ELISA, human IL-23R-Fc immobilized, HRP anti-human IgG, chemiluminescence. The procedure: as §1
Regarding B1, a half-maximal effect (EC50) was put at 0.0118 µg/mL.
In the case of B2, the EC50 turned out to be 0.0165 µg/mL.
Consider B3, for which a half-maximal response (EC50) required 0.0136 µg/mL.
In turn, B4 yielded an EC50 of 0.0218 µg/mL.
Consider B5, for which a half-maximal response (EC50) required 0.0195 µg/mL.
For the molecule B6, a half-maximal response (EC50) required 0.0131 µg/mL.
The same measure, in the same setting: then B7, with 0.0146 µg/mL.
